US12310324B2, “Compositions and methods for minimizing nornicotine synthesis in tobacco” (North Carolina State University, priority 2010, dated 2025)

Molecular target: CYP82E4 nicotine demethylase (Nicotiana tabacum, UniProt Q38Q87, V376M)
Sequence (Q38Q87 whole entry V376M): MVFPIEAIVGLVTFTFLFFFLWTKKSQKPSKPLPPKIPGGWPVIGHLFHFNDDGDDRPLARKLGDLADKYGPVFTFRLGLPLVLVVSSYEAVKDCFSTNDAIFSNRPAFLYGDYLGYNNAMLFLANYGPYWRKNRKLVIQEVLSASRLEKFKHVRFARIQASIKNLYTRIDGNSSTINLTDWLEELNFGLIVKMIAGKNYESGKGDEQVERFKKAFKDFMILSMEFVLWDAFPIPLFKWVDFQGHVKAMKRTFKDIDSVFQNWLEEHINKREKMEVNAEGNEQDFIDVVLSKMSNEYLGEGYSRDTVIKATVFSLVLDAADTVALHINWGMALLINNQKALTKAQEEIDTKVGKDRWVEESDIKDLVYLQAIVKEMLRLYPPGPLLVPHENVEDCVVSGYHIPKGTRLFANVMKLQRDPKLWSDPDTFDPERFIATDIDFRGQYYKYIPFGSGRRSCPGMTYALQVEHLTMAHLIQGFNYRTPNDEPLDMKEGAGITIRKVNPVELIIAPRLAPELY

B1: CYP82E4 V376M: CYP82E4 variant with methionine for valine at position 376 (protein, listed as Nicotiana tabacum)
chain: MLSPIEAIVGLVTFTFLFFFLWTKKSQKPSKPLPPKIPGGWPVIGHLFHFNDDGDDRPLARKLGDLADKYGPVFTFRLGLPLVLVVSSYEAVKDCFSTNDAIFSNRPAFLYGDYLGYNNAMLFLANYGPYWRKNRKLVIQEVLSASRLEKFKHVRFARIQASIKNLYTRIDGNSSTINLTDWLEELNFGLIVKMIAGKNYESGKGDEQVERFKKAFKDFMILSMEFVLWDAFPIPLFKWVDFQGHVKAMKRTFKDIDSVFQNWLEEHINKREKMEVNAEGNEQDFIDVVLSKMSNEYLGEGYSRDTVIKATVFSLVLDAADTVALHINWGMALLINNQKALTKAQEEIDTKVGKDRWVEESDIKDLVYLQAIVKEMLRLYPPGPLLVPHENVEDCVVSGYHIPKGTRLFANVMKLQRDPKLWSDPDTFDPERFIATDIDFRGQYYKYIPFGSGRRSCPGMTYALQVEHLTMAHLIQGFNYRTPNDEPLDMKEGAGITIRKVNPVELIIAPRLAPELY
modifications: CYP82E4 V376M Variant
  nicotine demethylase activity relative to the wild-type CYP82E4 polypeptide: about 50%
